Measurements published in paper PMC5133711.
Values belong to the substance of their own block, whether it stands above or below them.

Key:
[1] = test system: JARID2 1-530 (hJARID2); experiment: BLI; details: BLI: 10 mM HEPES pH 7.4, 150 mM NaCl, 3 mM EDTA, 0.005% Tween-20, 1 mg/ml BSA, 25 C, pull-down buffer not given in the material
[2] = molecular target: H2AK119u1-modified mononucleosomes (Xenopus | not stated); experiment: BLI; biotinylated mononucleosomes immobilised on streptavidin biosensors; Jarid2 1-530 at 2–25 μM; 25 °C; 10 mM HEPES pH 7.4, 150 mM NaCl, 3 mM EDTA, 0.005% Tween-20, 1 mg/ml BSA; kon and koff from kobs versus concentration; n=3
[3] = molecular target: unmodified mononucleosomes (Xenopus); experiment: as above
[4] = molecular target: H2AK119u1(I44A) mononucleosomes (Xenopus | not stated) (UniProt P0CG48); experiment: as above

Substance: H2AK119u1 mononucleosome (601, 147 bp)
Kd ([1]; kon 576 s-1 (so in the source), H2A K119C crosslinked to His-ubiquitin G67C (so in the source) by 1,3-dichloroacetone): 2.8 µM

Kd [2]: 2.8 µM
Kd [3]: 5 µM
Kd [4]: 5.1 µM
Substance: hJARID2 1–530 (from UniProt Q92833 1-530) (domain or fragment)

Substance: H2AK119u1(I44A) mononucleosome (601, 147 bp)
Kd ([1]; H2A K119C crosslinked to His-ubiquitin I44A;G67C (so in the source)): 5.1 µM

Substance: unmodified mononucleosome (601, 147 bp)
Kd ([1]; kon 313 s-1 (so in the source)): 5 µM
